Assay: yeast display, Sf9 membrane polyspecificity reagent, FACS + sequencing; frameworks hold sequencing errors
Method in brief: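 Nanobodies from a synthetic yeast display library (Saccharomyces cerevisiae BJ5465), induced 36–48 hours with galactose, were stained 1 hour at 4 °C with 10% biotinylated, detergent-solubilized Sf9 membrane reagent, enriched on streptavidin microbeads, then FACS-sorted. Anti-HA (expression) and streptavidin (reagent binding) fluorescence set low and high (top ~1%) gates. Polyreactivity labels come from the gate of origin. Genes were colony-PCR amplified, MiSeq 2 × 250 sequenced and filtered by CDR length.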

Sequence: QVQLVESGGGLVQAGGSLRLSCAASGRILYVNTMGWYRQAPGKERELVAGITSRVGSTYYADSVKGRFTISRDNGKNTVYLQMKSLKPEYTAVYYCNARSTWRHRRDQVDFDYWGQGTQVTVSS
- polyreactivity (PSR sort gate): low polyreactivity

Sequence: QVQLVESGGGLVQAGGSLRLSCAASGRINAMGWYRQAPGKERELVAVITLRGGSTYYADSVKGRFTISRDNAKNTVYLQMNSLKPEDTAVYYCAAVYRWPDAKYDYWGQGTQVSVSS
- polyreactivity (PSR sort gate): low polyreactivity

Sequence: QVQLVESGGGLVQAGGSLRLSCAASGRIRPRNAMGWYRQAPGKERELVAGISSDGSTNYADSVKGRFTISRDNAKNTVYLQMNSLKQEDTAVYYCAADGVYDPNLYGYWGQGTQLTVSS
- polyreactivity (PSR sort gate): low polyreactivity

Sequence: QVQLVESGGGLVQAGGSLRLSCAASGRISAYAMGWYRQAPGKERELVAAISSRGGRTYYADSVKGRFTISRDNAKTTVYLQMNSLKPEDTAVYYCNALRPWEFDHWGHGTQVTVSS
- polyreactivity (PSR sort gate): high polyreactivity

Sequence: QVQLVESGGGLVQAGGSLRLSCAASGRISAYYAMGWYRQAPGKERELVAVITSGGRTNYADSVKGRFTISRDNAKNTVYLQMNSLKPEDTAVYYCAARSRVSPRYDYWGQGTQVTVSS
- polyreactivity (PSR sort gate): high polyreactivity

Sequence: QVQLVESGGGLVQAGGSLRLSCAASGRISGFNAMGWYRQAPGKDRELVAAISYRGGSTSADSVKGRFTISRDNAKNTVYLQMNSLKPEDTAVYYCAADVRFYQYSDYDYWGQGTQVTVSS
- polyreactivity (PSR sort gate): low polyreactivity

Sequence: QVQLVESGGGLVQAGGSLRLSCAASGRISGRNAMGWYRQAPGKERELVAVITRGDTNYADSVKGRFTISRDNAKNTVYLQMNSLKPEDTAVYYCAKEPLASGWGYDYWGQGTQVTVSS
- polyreactivity (PSR sort gate): high polyreactivity

Sequence: QVQLVESGGGLVQAGGSLRLSCAASGRISGRYAMGWYRQAPGKERELVAAITGRGGGTFYADSVKGRFTISRDNAKNTVYLQMNSLKPEDTAVYYCNTDYGSSYNYCGQGTQVTVSS
- polyreactivity (PSR sort gate): high polyreactivity

Sequence: QVQLVESGGGLVQAGGSLRLSCAASGRISGSYVMGWYRQAPGKESELVAGISGRGGSTYYADSVKGRFTISRDNAKNTVYLQMYSLKPEDTAVYYCAVVDRTSKGNSYYWGQGTQVTVSS
- polyreactivity (PSR sort gate): high polyreactivity

Sequence: QVQLVESGGGLVQAGGSLRLSCAASGRISGVNAMGWYRQAPGKERELVATISGSGGRTYYADSVKGRFTISRDNAKNTVYLQMNSLKPEDTAVYYCAAGPPRADYDYWGQGTQVTVSS
- polyreactivity (PSR sort gate): low polyreactivity

Sequence: QVQLVESGGGLVQAGGSLRLSCAASGRISKKYAMGWYRQAPGKERELVAAIRGSGGGTYYADSVKGRFTISRDNAKNTVYLQMNSLKPEDTAVYYCNAASRHSTAPITGYDSWGQGTQVTVSS
- polyreactivity (PSR sort gate): high polyreactivity

Sequence: QVQLVESGGGLVQAGGSLRLSCAASGRISKRYTMGWYRQAPGKERELVAAITNSGGTTYYADSVKGRFTISRDNAKNTVYLQMNSLKPEDTAVYYCNKPYGAETAHREFDYWGQGTQVTVSS
- polyreactivity (PSR sort gate): low polyreactivity

Sequence: QVQLVESGGGLVQAGGSLRLSCAASGRISRCYVMGWYRQEPGKERELVAAITWNSGSTYYADSVKGRFTISRDNAKNTVYLQMNSLKPEDTAVYYCAAVLYSRYQQYDFWGQGTQVTVSS
- polyreactivity (PSR sort gate): high polyreactivity

Sequence: QVQLVESGGGLVQAGGSLRLSCAASGRISSGYAMGWYRKAPGKERELVAAISSIGGRTYYADSVKGRFTISRDNANNTVYLQMNSLKPEDTAVYYCNAGTYRRIGGYDYWGQGTQVTVSS
- polyreactivity (PSR sort gate): high polyreactivity

Sequence: QVQLVESGGGLVQAGGSLRLSCAASGRISSQYAMGWYRQAPGKERELVAAISTSGDRTYYADSVKGRFTISRDTAKNTVYLEMNSLKPEDTAVYYCAKDCPYTYGRDIYEYWGQGTQVTVSS
- polyreactivity (PSR sort gate): low polyreactivity

Sequence: QVQLVESGGGLVQAGGSLRLSCAASGRISVFNAMGWYRQAPGKERELVAAITSGGSTNYADSVKGRFTISRDNAKNTVYLQMNSLKPEDTAVYYCNADVYHSHEPHYDYWGQGTQVTVSS
- polyreactivity (PSR sort gate): low polyreactivity

Sequence: QVQLVESGGGLVQAGGSLRLSCAASGRISVRIYAMGWYRQAPGKERELVAIIARSGGSTYYADSVKGRFTISRDNAKHTVYLPMNSLKPADTAVYYCAAGYRTRRGLGYYYWGQGTQVTVSS
- polyreactivity (PSR sort gate): high polyreactivity

Sequence: QVQLVESGGGLVQAGGSLRLSCAASGRISVYNMGWYRQAPGKERELVAAISNGGSTNYADSVKGRFTISRDNAKNTVYLQMNSLKPEDTAVYYCNRRVPYSFYSRGYYYWGQGTQVTVSS
- polyreactivity (PSR sort gate): high polyreactivity

Sequence: QVQLVESGGGLVQAGGSLRLSCAASGRISWVYPMGWYRKAPGKERELVAAITFSGGSTYYADSVKGRFTISRDNAKNSVYLQMNSLKPEDTAVYYCAADVLAIYSHRYYRYDSWGQGTQVTVSS
- polyreactivity (PSR sort gate): high polyreactivity

Sequence: QVQLVESGGGLVQAGGSLRLSCAASGRISYGYAMGWYRQAPGKERELVAAISRSGGTTYYADSVKGRFTISRDNAKNTVYLQMNSLKPEDTAVYYCNRVWYATDFVNTMGYWGQGTQVTVSS
- polyreactivity (PSR sort gate): low polyreactivity

Sequence: QVQLVESGGGLVQAGGSLRLSCAASGRISYGYVMGWYRQAPGKERELVAAISRTGGNTYYADSVKGRFTISRDNAKNTVYLQMNSLKPEDTAVYYCAKVYKTGITQYDYWGQGTQVTVSS
- polyreactivity (PSR sort gate): high polyreactivity

Sequence: QVQLVESGGGLVQAGGSLRLSCAASGRISYYYMGWYRQAPGKERELVAAISWNGGRTYYADSVKGRFTISRDNAKNTVYLQMNSLKPEDTAVYYCAARFYSRAFWPAYYYWGQGTQVTVSS
- polyreactivity (PSR sort gate): high polyreactivity

Sequence: QVQLVESGGGLVQAGGSLRLSCAASGRITFSHNTMGWYRQAPGKERELVAAISSGGRTNYADSVKGRFTISRDNAKNTVYLQMNSLKPEDTAVYYCARESHYDFIYDGMDYWGQGTQVTVSS
- polyreactivity (PSR sort gate): low polyreactivity

Sequence: QVQLVESGGGLVQAGGSLRLSCAASGRITGIYAMGWYRPAPGKERELVAAITWRGGRTCYADSVKGRFTISRDNAKNSVYLQMNSLKPEDTAVYYCAAELQGAYYFAYYYWGQGTQVTVSS
- polyreactivity (PSR sort gate): high polyreactivity

Sequence: QVQLVESGGGLVQAGGSLRLSCAASGRITVFYTMGWYRQAPGKERELVATITRSGSRTYYADSVKGRFTISRDNAKNTVYLQMNSLKPEDTAVYYCARSQAVYDGWFAKFGYWGQGTQVTVSS
- polyreactivity (PSR sort gate): low polyreactivity

Sequence: QVQLVESGGGLVQAGGSLRLSCAASGRIVEVYAMGWYRQARGKERELVAAISSGGGSTYYADSVKGRFTISRDNAKNTVYLQMNSQKPEDTAVYYCAARKPSVRGAPYYYWGQGTQVTVSS
- polyreactivity (PSR sort gate): high polyreactivity

Sequence: QVQLVESGGGLVQAGGSLRLSCAASGRIVGRHALGWYRQAPGKERELVAAMSSSGGTYYADSVKGRFTISRDKAKNTLYLQMNSLKPEDTAVYYCNARVRTQQRWVDYWGQGTQVTVSS
- polyreactivity (PSR sort gate): high polyreactivity

Sequence: QVQLVESGGGLVQAGGSLRLSCAASGRIVRPNAMGWYRQAPGKERELVAAIRSTVGSTFYADSVKGRFTISRDNAKNTVYLEMISLKPEDTAVYDCAAGTSRQFFYWGQGTQVTVAS
- polyreactivity (PSR sort gate): low polyreactivity

Sequence: QVQLVESGGGLVQAGGSLRLSCAASGRIVSGYAMVWYRQAPGKERELVAAITSGGSTNYADSVKGRFTLSRDNAKNTVYLQMNSLKPEDTAVYYCAADSREVSTTAYYYWGQGTQVTVSS
- polyreactivity (PSR sort gate): low polyreactivity

Sequence: QVQLVESGGGLVQAGGSLRLSCAASGRIWGYAMGLYRQAPGKARELVATITYNSGRTYYADSVKGRFTISRDNAKNTVYLQMNSLKPEDTAVYYCNKDFDGRFDYWGQGTQVNVSS
- polyreactivity (PSR sort gate): high polyreactivity

Sequence: QVQLVESGGGLVQAGGSLRLSCAASGRIYFNAMGWYRQAPGKERELLADISWIGGSTYYADSVKGRFTISRDNGKNTVYLQMNRLKPEYTAVYYCAAVFLSWWDSYDFWGQGTQVTVSS
- polyreactivity (PSR sort gate): high polyreactivity

Sequence: QVQLVESGGGLVQAGGSLRLSCAASGRIYGLYAMGWYRQAPGKERELVAAISEGGGSTNYADSEKGRFTISRDNAKNTFYLQMNSLKPDDTAVYYCAATYRTGVRRYYSWGQGTQVTVSS
- polyreactivity (PSR sort gate): low polyreactivity

Sequence: QVQLVESGGGLVQAGGSLRLSCAASGRIYGVYVMGWSRQAPGKERELVAAISWGGGTYYADSVKGRFTISRDNSKNTVTLKMNSLKPEDTAVYYCNAESYYTMYYWGQGTQVTVSS
- polyreactivity (PSR sort gate): low polyreactivity

Sequence: QVQLVESGGGLVQAGGSLRLSCAASGRIYIDYAMGWYRQAPGKERELVATISESGGSTYYADSVKGRITISRDNAKNTVYLQMNSLKPEDTAVYYCAVDDRSGTVYFYTKFDYWGQGTQVTVSS
- polyreactivity (PSR sort gate): low polyreactivity

Sequence: QVQLVESGGGLVQAGGSLRLSCAASGRIYKRYDMGWYRQAPGKERELVAAITGTGGSTYYADSVKGRFTISRDNAKNTVYLQMNSLKPEDTAVYYCAARLYNTYSGFAFGYWGQGTQVTVSS
- polyreactivity (PSR sort gate): high polyreactivity

Sequence: QVQLVESGGGLVQAGGSLRLSCAASGRIYNSNAMGWYRQAPGKERQLVAAITTSGASTYYADSVKGRFTISRDNAKNTVYLQMNSLKPEDTSVYYCATYAVVYPFAMDYWGQGTQVTVSS
- polyreactivity (PSR sort gate): low polyreactivity

Sequence: QVQLVESGGGLVQAGGSLRLSCAASGRIYRENAMGWYRQAPGKEREFVAVISISDASTYYADSVKGRFTISRDNAKNTVYLQMNSLKPVDTAVYYCAADLTDFLYVSSDFWGQGTQVTVSS
- polyreactivity (PSR sort gate): low polyreactivity

Sequence: QVQLVESGGGLVQAGGSLRLSCAASGRIYTMGWYRQAPGKERELVAAISKSGGSTSYADSVKGRFTISRDNAKNTVYLQMNSLKPEDTAVYYCAALHYGRYRMDYWGQGTQVTVSS
- polyreactivity (PSR sort gate): high polyreactivity

Sequence: QVQLVESGGGLVQAGGSLRLSCAASGRLFKDNAMGGYRQAPGKERELVATIDSGGDTNYADSVKGRFTISRDNAKNTVYLQMNSLKPEDTAVYYCNTAGRGGIPSGFDYWGQGTQVTVSS
- polyreactivity (PSR sort gate): low polyreactivity

Sequence: QVQLVESGGGLVQAGGSLRLSCAASGRLFKRYNMGWYRQGPGKDRELVAAIRSGGSTNYADSVKGRFTISRDNAKNTVYLPMNSLKPEDTAVYYCAARSTAYRGGSYAYDYWGQGTQVTVSS
- polyreactivity (PSR sort gate): high polyreactivity

Sequence: QVQLVESGGGLVQAGGSLRLSCAASGRLFSRYAMGWNRQAPGQQRELVAAITRGGGSTYYADSVKGRFTISRDNAKNTVYLQMNSLKPEDTAVYYCNKASVQYYGDVYWGQGTQVTVSS
- polyreactivity (PSR sort gate): high polyreactivity

Sequence: QVQLVESGGGLVQAGGSLRLSCAASGRLFYYNAMGWYRQAPGKERELVAAISWSGGSTYYADSVKGRFTISRDNAKNTVYLQMNSLKPEDTAVYYCAVDVYGYTPRPTREPLIYEYWGQGTQVTVSS
- polyreactivity (PSR sort gate): low polyreactivity

Sequence: QVQLVESGGGLVQAGGSLRLSCAASGRLLGFNVMGWYRQAPGKERELVAAITTSGGSTYYADSVKGRFTISRDNAKNTVYLQMHSLKPEDTAVYYCAAVKVQITLLHGDDYWGQGTQVTVSS
- polyreactivity (PSR sort gate): high polyreactivity
